Holding throughout (type): cell-based, human
The subject of data set [1] is mir-675R (reverse complementary sequence of mir-675-5p). In words: Dual-luciferase assay with mir-675 perfect target site (mir-675R) as Renilla 3'UTR. Particulars: mir-675R perfect target site; normalized to milacZ. An excerpt:
The QPCR was done using the Taqman probes designed to recognize the mature sequence of mir-675-5p and -3p. mir-675-3p expression was 2.20±0.15-fold higher than that of mir-675-5p (P<0.0001, ANOVA, N=3). Gene expression was normalized to the housekeeping gene RPL13A. Results were reported as the average relative gene expression±SEM of three replicates (N=3). […] The miRNA (pmoles) was used at 40-fold of the RenLuc-DUX4-FL (pmoles). When testing the U6.mir-675-3p construct, the relative Renilla luciferase kept on average 95% (P<0.2, ANOVA) of its activity, even though U6.mir-675-3p expressed high levels of mir-675-3p relative to the negative control mir-675-5p levels. On the other hand, U6.mir-675-5p was able to reduce the relative Renilla luciferase activity on average by 33±3% (P<0.0001, ANOVA, N=3). All readings were normalized to the milacZ negative control. Results were reported as the average relative Renilla luciferase activity±SEM of three replicates (N=3). […] This sequence was cloned as a 3′UTR downstream the Renilla luciferase gene. […] All readings were normalized to the milacZ negative control. […]
Dual Luciferase Assay. […] Luciferase activity was measured 24h or 48h after transfection. DUX4 gene silencing was determined as previously described [Wallace et al., Mol. Ther. Methods Clin. Dev. […]

For data set [2], the system named is pri-mir-675. Nature of the data set: TaqMan QRT-PCR of pri-mir-675 from transfected constructs in HEK293 cells. The settings on record: 24 h post-transfection. The source says:
(§1) RNA Extraction. RNA from HEK293 cells was extracted for Northern blot assay and QPCR. The miRVANA miRNA isolation kit (ThermoFisher Scientific) was used according to manufacturer's directions to extract total RNA encompassing small RNAs, such as miRNAs. To extract RNA from C57BL/6 skeletal muscles, cryopreserved muscles were crushed under suboptimal temperatures using liquid nitrogen and using mortar and pestle. Crushed muscles were then lysed using […] of miRVANA miRNA isolation kit lysis buffer, a TissueLyser and 1.0 mm zirconia beads (Biospec). Muscle was homogenized at 30 Hz for 30 sec with 10 sec rest. This was repeated 3 times.
(§2) TaqMan Gene Expression Assay. QRT-PCR was carried out to quantify the expression of pri-mir-675, mir-675-5p and mi405 using TaqMan probes (ThermoFisher Scientific). Experiments were started by eliminating genomic DNA from the RNA preparations, and then cDNA was generated using the High-Capacity cDNA Reverse Transcription Kit (Applied Biosystems) following manufacturer's instructions. Within the same cDNA reaction, 1×RT random hexamer primers were used to generate the cDNA for RPL13A, used as a reference gene, and for pri-mir-675. To generate the cDNA for mir-675, the RT mir-675 reverse primer provided by ThermoFisher Scientific was used. For mi405, the mi405 qPCR protocol was done as it was previously described [Wallace et al., Mol. Ther. Methods Clin. Dev. 8: 121-30 (2018)]. To quantify mir-675 and mi405 levels, RNA was extracted using the total RNA protocol for the mirVana miRNA Isolation Kit (Ambion) from HEK293 cells. cDNA was generated using the High-Capacity cDNA Reverse Transcription Kit (Applied Biosystems) using a mix of random hexamer primers and specific reverse primer for pri-mir-675 and mir-675-5p. For mi405, 200 nM of the stem-loop forming primer (5′-[…]-3′) (SEQ ID NO: 144) was also used for the RT step. A custom TaqMan assay (Applied Biosystems) including 1.5 μM of Forward primer (5′-[…]-3′) (SEQ ID NO: 145), 0.7 μM of Reverse primer (5′-GTGCAGGGTCCGAGGT-3′) (SEQ ID NO: 146), and 0.2 μM of mi405 probe (5′-6FAM-ATACGACGTCCAGGAT-3′) (SEQ ID NO: 147) was then run using the CFX Connect Real Time system apparatus (Bio-Rad). RPL13A (Mm02526700_g1; Applied Biosystems) served as the reference gene. The TaqMan gene expression assay consisted of using the TaqMan Gene Expression Master mix and TaqMan probes purchased from ThermoFisher Scientific. 1× of probe was mixed with 1× of the TaqMan Gene Expression Master mix (ThermoFisher Scientific), and with 20 ng of cDNA. The mir-675- and mi405-specific primers and probes were designed to quantify only the mir-675-5p and mi405 mature sequence (see TaqMan Gene Expression Master mix protocol).
On the technique in general: In qPCR the cycle at which signal appears reflects the starting amount.

The subject of data set [3] is mir-675-5p. Nature of the data set: TaqMan QRT-PCR of mature mir-675-5p from transfected constructs in HEK293 cells.
Description: as §1, §2

These results are taken from US20240093191A1, “COMPOSITIONS AND METHODS FOR TREATING DISEASE ASSOCIATED WITH DUX4 OVEREXPRESSION” (RESEARCH INSTITUTE AT NATIONWIDE CHILDREN'S HOSPITAL, priority 2021, published 2024).

B1: U6.mir-675: U6 promoter-driven mir-675 expression plasmid with 40 nt 5' and 47 nt 3' flanking sequences (nucleic acid)
DNA: GACGCCGCCATCTCTAGGCCCGCGCCGGCCCCCTCGCACAGACTTGTGGGAGAAGCTCGGCTACTCCCCTGCCCCGGTTAATTTGCATATAATATTTCCTAGTAACTATAGAGGCTTAATGTGCGATAAAAGACAGATAATCTGTTCTTTTTAATACTAGCTACATTTTACATGATAGGCTTGGATTTCTATAAGAGATACAAATACTAAATTATTATTTTAAAAAACAGCACAAAAGGAAACTCACCCTAACTGTAAAGTAATTGTGTGTTTTGAGACTATAAATATCCCTTGGAGAAAAGCCTTGTTTGCGTTTAGTGAACCGTCAGATGGTACCGTTTAAACTCGAGCCCAGGGTCTGGTGCGGAGAGGGCCCACAGTGGACTTGGTGACGCTGTATGCCCTCACCGCTCAGCCCCTGGGACTAGAGCGGCCGCCACAGCGGGGAGATCCAGACATGATAAGATACATTTTTT
As for B1, the “reduction of relative Renilla luciferase activity (maximum inhibition)” value in data set [1] is reported as 41±12%.

B2: H1.mir-675: commercially available H1 promoter mir-675 expression plasmid (SBI Biosciences) (nucleic acid)
DNA: GAACGCTGACGTCATCAACCCGCTCCAAGGAATCGCGGGCCCAGTGTCACTAGGCGGGAACACCCAGCGCGCGTGCGCCCTGGCAGGAAGATGGCTGTGAGGGACAGGGGAGTGGCGCCCTGCAATATTTGCATGTCGCTATGTGTTCTGGGAAATCACCATAAACGTGAAATGTCTTTGGATTTGGGAATCTTATAAGTTCTGTATGAGACCACCCCCCAGGGTCTGGTGCGGAGAGGGCCCACAGTGGACTTGGTGACGCTGTATGCCCTCACCGCTCAGCCCCTGGGGAATTCTTCGATTCTGCTTTTTT
In the case of B2, in data set [2], the “pri-mir-675 levels compared to U6.mir-675” value is 320±43%. The “mir-675-5p levels compared to U6.mir-675” value in data set [3] (23 mer mature mir-675-5p, HEK293, 24 h post-transfection) worked out at 232±35%. Further, the “mir-675-5p overexpressed levels compared to milacZ sample” value in data set [3] (HEK293 co-transfected with CMV.DUX4-FL/CMV.eGFP) is approximately 2000 fold.
